In patent US20160264664A1 (Ablynx, published 2016):

T1: mouse P2X7 (mouse, UniProt Q9Z1M0 1-595)
T1 construct: on transfected CHO or Hek293 cells, or endogenous on Yac-1 cells; also called mP2X7; mouse purinoceptor P2X7
T1 sequence: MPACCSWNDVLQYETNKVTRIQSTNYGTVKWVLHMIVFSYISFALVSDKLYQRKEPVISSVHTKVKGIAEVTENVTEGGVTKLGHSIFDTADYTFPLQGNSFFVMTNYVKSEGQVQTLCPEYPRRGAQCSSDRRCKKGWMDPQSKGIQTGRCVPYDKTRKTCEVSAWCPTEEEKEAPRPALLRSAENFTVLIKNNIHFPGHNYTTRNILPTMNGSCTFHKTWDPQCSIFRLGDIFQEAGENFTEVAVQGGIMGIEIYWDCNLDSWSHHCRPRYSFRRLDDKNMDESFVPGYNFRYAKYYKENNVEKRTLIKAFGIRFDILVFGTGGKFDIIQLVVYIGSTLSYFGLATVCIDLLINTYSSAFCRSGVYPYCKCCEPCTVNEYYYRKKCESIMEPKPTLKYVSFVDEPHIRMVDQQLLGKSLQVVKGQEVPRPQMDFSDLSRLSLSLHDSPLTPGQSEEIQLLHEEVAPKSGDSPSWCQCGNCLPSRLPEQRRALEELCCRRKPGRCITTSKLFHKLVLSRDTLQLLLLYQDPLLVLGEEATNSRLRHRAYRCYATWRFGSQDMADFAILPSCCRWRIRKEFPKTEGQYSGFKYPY

T2: human P2X7 (human, UniProt Q99572 1-595)
T2 construct: on transfected Hek293 cells; also called hP2X7
T2 sequence: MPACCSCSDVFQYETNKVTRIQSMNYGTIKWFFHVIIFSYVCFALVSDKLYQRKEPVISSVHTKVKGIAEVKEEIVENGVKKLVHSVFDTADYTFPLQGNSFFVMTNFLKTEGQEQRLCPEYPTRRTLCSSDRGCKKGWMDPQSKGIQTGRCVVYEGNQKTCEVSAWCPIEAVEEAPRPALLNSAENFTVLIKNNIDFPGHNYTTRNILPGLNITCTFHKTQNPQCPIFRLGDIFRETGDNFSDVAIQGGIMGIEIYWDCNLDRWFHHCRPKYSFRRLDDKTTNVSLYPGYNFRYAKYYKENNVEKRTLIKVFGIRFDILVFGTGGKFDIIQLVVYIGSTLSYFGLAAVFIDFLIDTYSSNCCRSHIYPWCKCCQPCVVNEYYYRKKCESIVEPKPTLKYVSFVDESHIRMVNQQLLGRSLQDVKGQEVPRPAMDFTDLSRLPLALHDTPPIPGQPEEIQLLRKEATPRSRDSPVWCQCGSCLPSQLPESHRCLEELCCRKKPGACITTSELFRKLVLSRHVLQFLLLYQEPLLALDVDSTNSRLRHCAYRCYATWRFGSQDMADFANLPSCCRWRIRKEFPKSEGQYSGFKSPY

T3: human P2X4 (human, UniProt Q99571 1-388)
T3 construct: whole, on cells; also called hP2X4
T3 sequence (looked up): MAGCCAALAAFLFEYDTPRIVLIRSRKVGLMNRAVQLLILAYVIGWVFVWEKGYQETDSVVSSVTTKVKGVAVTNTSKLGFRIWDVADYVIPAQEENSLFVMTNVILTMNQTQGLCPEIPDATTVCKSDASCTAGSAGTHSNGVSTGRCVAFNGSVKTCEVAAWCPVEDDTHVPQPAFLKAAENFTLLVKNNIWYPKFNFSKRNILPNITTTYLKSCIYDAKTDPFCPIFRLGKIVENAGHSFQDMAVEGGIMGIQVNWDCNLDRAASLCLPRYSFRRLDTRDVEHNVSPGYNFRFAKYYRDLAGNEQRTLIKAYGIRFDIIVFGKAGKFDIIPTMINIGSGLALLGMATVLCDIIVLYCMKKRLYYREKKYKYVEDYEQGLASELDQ


Assays:
[1] = target: T1, mouse P2X7; test: phage ELISA, mP2X7-CHO vs control CHO cells
Procedure: (§1) Sub-confluent cells were rinsed with PBS and fixed using 4% paraformaldehyde in PBS for 10 minutes at RT. Fixed cells were washed three times with PBS, and blocked with 2% BSA in PBS for 2 hours. Following blocking, 10-fold diluted culture supernatant containing phage was added and incubated for 1 hour. Cell-bound phage was detected via mouse anti-M13-HRP-conjugate (GE Healthcare, Cat nr. E2886). Rat mAb Hano43 was used as positive control.

[2] = target: T1, mouse P2X7; test: flow cytometry, periplasmic extract pre-incubated with anti-myc-FITC, on mP2X7-Hek293 cells;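 also: periplasmic extract diluted 10-fold and premixed 45 min at 4 °C with FITC anti-myc antibody, giving pseudo-bivalent Nanobodies, before binding to the cells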
Procedure: Ten-fold diluted PE were pre-incubation with 0.5 μg anti-myc FITC-conjugated antibodies (AbD Serotec, cat no. MCA2200F) (creating pseudo-bivalent Nanobodies in order to increase binding strength) in 0.1 ml PBS/10% FCS for 45 minutes at 4° C. […] Alternatively, sequential staining of 10-fold diluted PE with anti-myc FITC-conjugated antibodies was done after incubation with the cells.

[3] = target: T1, mouse P2X7; test: phage ELISA on fixed mP2X7-CHO vs untransfected CHO cells;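 also: phage culture supernatant diluted 10-fold, applied for 1 h to paraformaldehyde-fixed, BSA-blocked cells in 96-well plates, with bound phage read via HRP-linked anti-M13 antibody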
Procedure: as §1

[4] = target: T2, human P2X7; test: flow cytometry, Nanobody pre-incubated with anti-Myc-FITC
[5] = target: T3, human P2X4; test: as above

Binder | absorption ratio (ELISA) [1] [ratio] | MFI FACS (pre-Myc incubation) [2] [MFI] | Fold Cho P2X7/wt (phage ELISA) [3] [fold] | binding result [4] | binding result [5]
P2X7PMP6A11 (VHH, family 5, 2; on phage or c-myc/His6-tagged in assays) VHH: EVQLVESGGGLVQAGGSLRLSCAASGNFFRVNTMAWYRQAPGKQRELVADITRGDRTNYADTVNGRFTISRDNVRNTVYLQMNGLKPEDTAAYYCYARIELGVLEPRDYWGQGTQVTVSS | 17 | 53 | – | – | –
P2X7PMP8B4 (VHH, family 5, 2; on phage or c-myc/His6-tagged in assays) VHH: EVQLVESGGGLVQAGGSLRLSCAASGNFFRVNTMAWYRQAPGKQRELVADITRGDRTNYADTVNGRFTISRDNVRNTVYLQMNSLKPEDTAAYYCYARIELGVLEPRDYWGQGTQVTVSS | 13 | 71 | – | – | –
P2X7PMP8D10 (VHH, family 5, 3; on phage or c-myc/His6-tagged in assays) VHH: EVQLVESGGGLVQPGGSLRLSCAASGSFFRVNNMAWYRQAPGKQRELVADITRGDRTNYADSVNGRFTISRDNVRNTVYLQMNGLKPEDTAVYYCYATIELGVLEPRDYWGQGTQVTVSS | 18 | 94 | – | – | –
P2X7PMP8H10 (VHH, family 5, 3; on phage or c-myc/His6-tagged in assays) VHH: EVQLVESGGGLVQAGGSLRLSCAASGSFFRVNNMAWYRQGPGKQRELVADITRGDRTNYADSVNGRFTISRDNVRNTVYLQMNGLKPEDTAVYYCYATIELGVLEPRDYWGQGTQVTVSS | 19 | 94 | – | – | –
P2X7PMP8H6 (VHH, family 5, 2; on phage or c-myc/His6-tagged in assays) VHH: EVQLVESGGGLVQAGGSLRLSCAASGSFFRVNNMAWYRQAPGKQRELVADITRGDRTNYADSVNGRFTISRDNVRNTVYLQMNGLKPEDTAVYYCYARIELGPLVPRDYWGQGTQVTVSS | 17 | 43 | – | – | –
P2X7PMP8A11 (VHH, family 5, 2; on phage or c-myc/His6-tagged in assays) VHH: EVQLVESGGGLVQAGGSLRLSCAASGSFFRVNNMAWYRQAPGKQRELVADITRGDRTNYADSVNGRFTISRDNVRNTVYLQMDGLKPEDTAVYYCYARIELGVLVPRDYWGQGTQVTVSS | 11 | 17 | – | – | –
P2X7PMP8H5 (VHH, family 5, 2; on phage or c-myc/His6-tagged in assays) VHH: EMQLVESGGGLVQAGGSLRLSCAASGNFFRVNTMAWYRQAPGKQRELVADITRGDRTNYADTVNGRFTISRDNVRNTVYLQMNGLKPEDTAAYYCYARIELGVLEPRDYWGQGTQVTVSS | 12 | 24 | – | – | –
P2X7PMP8H4 (VHH, family 5, 3; on phage or c-myc/His6-tagged in assays) VHH: EVQLVESGGGLVQAGGSLRLSCAASGSFFRVNNMAWYRQGPGKQRELVADITRGDRTNYADSVNGRFTISRDNVRNTVYLQMDGLKPEDTAVYYCYATIELGVLVPRDYWGQGTQVTVSS | 27 | 65 | – | – | –
P2X7PMP8E6 (VHH, family 5, 2; on phage or c-myc/His6-tagged in assays) VHH: EVQLVESGGGLVQAGGPLRLSCAASGNFFRVNTMAWYRQAPGKQRELVADITRGDRTNYADTVNGRFTISRDNVRNTVYLQMNGLKPEDTAAYYCYARIELGVLEPRDYWGQGTQVTVSS | 12 | 69 | – | – | –
P2X7PMP8C12 (VHH, family 5, 3; on phage or c-myc/His6-tagged in assays) VHH: EVQLVESGGGLVQAGGSLRLSCAASGSFFRVNNMAWYRQAPGKQRELVADITRGDRTNYADSVNGRFTISRDNVRNTVYLQMNGLKPEDTAVYYCYATIELGVLEPRDYWGQGTQVTVSS | 28 | 89 | – | – | –
P2X7PMP8B12 (VHH, family 5, 3; on phage or c-myc/His6-tagged in assays) VHH: EVQLVESGGGLVQAGGSLRLSCAASGSFFRVNVMAWYRQGPGKQRELVADITRGDRTNYADSVNGRFTISRDNVRNTVYLQMNGLKPEDTAVYYCYATIELGVLEPRDYWGQGTQVTVSS | 38 | 93 | – | – | –
P2X7PMP1A8 (VHH, family 2; on phage or c-myc/His6-tagged in assays) VHH: EVQLVESGGGLVQTGGSLRLSCAASGFTLDDYAIAWFRQAPGKEREGVSILSSIGKTFYADSVKDRFSITADGAKTTVFLQMNSLKPGDTAIYYCVAGHFVYNDGAISLNTARGSGFWGQGAQVTVSS | 21 | 18 | 20 | no binding (tested: 147 nM) | no binding (tested: 147 nM)
P2X7PMP1C9 (VHH, family 2; on phage or c-myc/His6-tagged in assays) VHH: EVQLVESGGGLVQTGGSLRLSCAASGFTLDDYAIAWFRQAPGKEREGVSILSSIGKTFYADSVKDRFSITADGAKTTVFLQMNSLKPEDTAIYYCVAGHFVYNDGAISLNTARGSGFWGQGAQVTVSS | 6 | 19 | – | – | –
P2X7PMP20C9 (VHH, family 2; on phage or c-myc/His6-tagged in assays) VHH: EVQLVESGGGLVQTGGSLRLSCAASGFTLDDYAIAWFRQAPGKEREGVSILSSIGKTFYADSAKDRFSITADGAKTTVFLQMNSLKPEDTAIYYCVAGHFVYNDGAISLNTARGSGFWGQGTQVTVSS | 11 | 97 | 11 | no binding (tested: 147 nM) | no binding (tested: 147 nM)
P2X7PMP20B10 (VHH, family 2; on phage or c-myc/His6-tagged in assays) VHH: EVQLVESGGGLVQTGGSLRLSCAASGFTLDDYAIAWFRQAPGKEREGVSILSSIGKTFYADSVKDRFSITADGAKTTVFLQMNSLKPEDTAIYYCVAGHFVYNDGAISLNTARGSGFWGQGTQVTVSS | 8 | 85 | – | – | –
P2X7PMP1G6 (VHH, family 15; on phage or c-myc/His6-tagged in assays) VHH: EVQLVESGGGLVQAGGSLRLSCAASPGAFSSFNMGWFRQTPGKEREFVAATSWSDISTYYADSVKGRFTISRDNAKNTVTLEMNSLKPEDTAVYYCAAGYYRGGYLGYRLTLEGSYDVWGQGTQVTVSS | 12 | 11 | 12 | no binding (tested: 147 nM) | no binding (tested: 147 nM)
P2X7PMP19C2 (VHH, family 15; on phage or c-myc/His6-tagged in assays) VHH: EVQLVKSGGGLVQAGGSLRLSCAASPGTFSSFNMGWFRQTPGKEREFVAATSWSDISTYYADSVKGRFTISRDNAKNTVTLEMNSLKPEDTAVYYCAAGYYRGGYLGYRLTLEGSYDVWGQGTQVTVSS | 18 | 64 | – | – | –
P2X7PMP19E3 (VHH, family 15; on phage or c-myc/His6-tagged in assays) VHH: EMQLVESGGGLVQAGGSLRLSCAASPGTFSSFNMGWFRQTPGKEREFVAATSWSDISTYYADSVKGRFTISRDNAKNTVTLEMNSLKPEDTAVYYCAAGYYRGGYLGYRLTLEGSYDVWGQGTQVTVSS | 8 | 55 | – | – | –
